Test results as given in patent US20190106487A1 (Sanofi, published 2019).
Substitutions are numbered along the chain they refer to.

T1: human IL-1RAcP on 293T/17-FR cells (human, UniProt Q9NPH3 21-570)
T1 sequence (looked up): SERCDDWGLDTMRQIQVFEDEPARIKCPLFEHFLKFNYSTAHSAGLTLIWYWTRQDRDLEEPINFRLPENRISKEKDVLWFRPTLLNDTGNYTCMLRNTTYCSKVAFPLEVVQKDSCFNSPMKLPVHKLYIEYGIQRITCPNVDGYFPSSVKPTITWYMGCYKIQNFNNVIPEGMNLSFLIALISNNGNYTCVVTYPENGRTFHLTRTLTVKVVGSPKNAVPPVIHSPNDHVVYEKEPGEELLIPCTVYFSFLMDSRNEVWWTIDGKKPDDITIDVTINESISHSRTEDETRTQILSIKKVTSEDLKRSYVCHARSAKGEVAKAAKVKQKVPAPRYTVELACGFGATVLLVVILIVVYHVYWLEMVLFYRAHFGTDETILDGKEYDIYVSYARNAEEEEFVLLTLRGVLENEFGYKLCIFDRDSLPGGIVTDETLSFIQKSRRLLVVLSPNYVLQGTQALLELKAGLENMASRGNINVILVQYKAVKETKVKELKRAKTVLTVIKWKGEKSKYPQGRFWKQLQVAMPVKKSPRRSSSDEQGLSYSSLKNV

T2: rhIL-1RAcP/Fc Chimera (human, UniProt Q9NPH3 21-359)
T2 construct: also called P013_03; P013-03
T2 sequence (looked up): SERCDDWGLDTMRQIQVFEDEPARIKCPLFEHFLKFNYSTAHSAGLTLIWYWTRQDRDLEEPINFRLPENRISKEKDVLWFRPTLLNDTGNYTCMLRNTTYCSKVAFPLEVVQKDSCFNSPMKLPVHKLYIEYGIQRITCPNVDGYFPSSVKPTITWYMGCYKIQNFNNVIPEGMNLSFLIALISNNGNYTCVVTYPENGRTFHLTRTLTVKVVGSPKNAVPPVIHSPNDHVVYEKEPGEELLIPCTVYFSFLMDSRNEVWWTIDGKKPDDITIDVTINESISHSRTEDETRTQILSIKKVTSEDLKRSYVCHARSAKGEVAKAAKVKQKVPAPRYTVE

T3: mIL1RAcP-Fc (murine, UniProt Q61730 21-359)
T3 construct: also called P013_04; P013-04
T3 sequence (looked up): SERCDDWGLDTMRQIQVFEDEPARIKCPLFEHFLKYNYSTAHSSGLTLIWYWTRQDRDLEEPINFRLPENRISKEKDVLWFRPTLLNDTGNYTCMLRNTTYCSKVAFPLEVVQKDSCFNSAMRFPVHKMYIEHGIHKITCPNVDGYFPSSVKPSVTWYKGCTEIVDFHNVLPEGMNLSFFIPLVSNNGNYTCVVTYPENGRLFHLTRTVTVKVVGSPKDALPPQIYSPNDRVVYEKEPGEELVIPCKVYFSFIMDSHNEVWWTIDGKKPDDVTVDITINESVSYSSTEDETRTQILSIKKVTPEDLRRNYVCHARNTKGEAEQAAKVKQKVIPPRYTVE

B1: P013.S.02.B.C03 (antibody, V domains shown)
VH: QSLEESGGRLVTPGTPLTLTCTVSGIDLSSYAMGWVRQAPGKGLEYIGIISNSGTTYYASWAKGRFTISKTSSTTVDLKMTSPTTEDTATYFCARDRYANTHGIFSLWGQGTLVTVSS
VL: DIVMTQTPASVSAPVGGTVTINCQASESIYSDLAWYQQKPGQPPKLLISFVATLESGVPSRFKGSGSGTEFTLTISDLESADAATYYCQCTYGGSGSGNGAAFGGGTEVVVK
notes: rabbit monoclonal antibody; also called P013.A.00085.G07
B2: P013.S.02.B.D02 (antibody, V domains shown)
VH: QSLEESGGDLVKPGASLKLSCTASGVSFSSAYWMCWVRQAPGKGLEWIACIYAGSSGSTYYASWAKGRFTISKTSSTTVTLQMTSLTAADTATYFCARHAAWFELDLWGPGTLVTVSS
VL: ALVMTQTPSPVSAAVGGTVTINCQASQNIASAYLSWYQQKPGQPPKLLIYAASTLTDGVPSRFKGSGSVTEFTLTISGVQSDDAATYYCAGYKSYTDDEFAFGGGTEVVVK
notes: rabbit monoclonal antibody; also called P013.A.00086.F05
B3: P013.S.01.B.B04 (antibody, V domains shown)
VH: QSVEESGGRLVTPGTPLTLTCTVSGIDLDNYAMGWVRQAPGKGLEYIGVISSDGFFYDASWAKGRFTISKASSTTVDLKMTGLTPEDTATYFCARDRGTSTGSLDLWGQGTLVTVSS
VL: ALVMTQTPASVSEPVGGTVTIKCQASENIGNGLAWYQQKPGQPPNLLIYGASTLASGVPSRFSGSGYGTEFTLTVSDLESGDAATYYCQCTYWNPDYIGGAFGGGTEVVVT
notes: rabbit monoclonal antibody; also called P013.A.00086.E02
B4: P013.S.01.B.E03 (antibody, V domains shown)
VH: QSLEESGGRLVTPGTPLTLTCTASGFSITNYHISWVRQAPGKGLEWIGYIYAGRDFTYYANWAEGRFTISKTSTTVDLQVTVPTTEDTATYFCARDGGSPNWTLDLWGQGTLVTVSS
VL: DVVMTQTPASVSEPVGGTVTINCQASESISDYLSWYQQKPGQPPKLLIYRASTLESGVSSRFKGSGSGTQFTLTISDLESADAATYYCQSNYYDSRGNAFGGGTEVVVK
notes: rabbit monoclonal antibody; also called P013.A.00015.E03
B5: P013.S.01.B.C06 (antibody, V domains shown)
VH: QSVEESGGRLVTPGGSLTLTCTVSGFSLSIYAMGWFRQAPGKGLEWIGDIYAGSGSTWYASWAKGRFTISKTSTTVDLKITSPTTEDTATYFCAREIDAGYVGYGFNLWGQGTLVTVSS
VL: AQALTQTPSSVSAAVGGTVTINCQSSQSVYSDYLAWYQQKPGQPPKLLIYQASKLATGVPSRFKGSGSGTQFTLTISGVQSDDAATYYCQATYYGSGWYRAFGGGTELVVK
notes: rabbit monoclonal antibody; also called P013.A.00014.D06
B6: P013.S.01.B.D04 (antibody, V domains shown)
VH: QEQLKESGGRLVTPGGSLTLTCTVSGFSLSIYAMGWFRQAPGKGLEWIGDIYPGSDSTWYASWAKGRFTISKTSTTVDLKITSPTTEDTATYFCAREIDAGYVGYGFDLWGQGTLVTVSS
VL: B5 VL with P44S, Q51K, T57S, Q71E, G95S, S96V, L108V
notes: rabbit monoclonal antibody; also called P013.A.00088.B09
B7: P013.S.02.B.C01 (antibody, V domains shown)
VH: B5 VH with I30V, A52T
VL: B5 VL with A35V, T57S, Y94S, G95S, S96T, L108V
notes: rabbit monoclonal antibody; also called P013.A.00109.C12
B8: P013.S.02.B.E01 (antibody, V domains shown)
VH: QSLEESGGRLVTPGTPLTLTCTVSGFSLSIYGMGWVRQAPGEGLEWIGSISSGGSTYYATWAKGRFTISKTSSTTLDLKITSPTTEDTATYFCVRSDGYTNGDYDTYFNLWGQGTLVTVS
VL: DIVMTQTPASVSEPVGGTVTIRCQASQSISSWLSWYQQKPGQPPKLLIYQASALASGVSSRFIGSGYGTEFTLTISGVQSEDAATYYCQCTYGIGSNSDYGVAFGGGTEVVVK
notes: rabbit monoclonal antibody; also called P013.A.00013.G07
B9: P013.S.02.B.E02 (antibody, V domains shown)
VH: QSVEESGGRLVTPGTPLTLTCTVSGFSLNVYNMGWVRQAPGKGLEYIGIISSSGTTYYASWAKGRFTISKTSSTTVDLKITSLTTEDTATYFCARADGYTEGDYATYFNLWGQGTLVTVSS
VL: B8 VL with R22K, S30T, S31T, S34A, N97G, D99S
notes: rabbit monoclonal antibody; also called P013.A.00087.E09
B10: P013.S.02.B.D01 (antibody, V domains shown)
VH: LEQSGGGAEGGLVKPGGSLELCCKASGFSLSSNYWMCWVRQAPGKGLEWIGCIYAGSSDSTYYASWVNGRFTLSRDIDQSTGCLQLNSLTAADTAMYYCASPGYGGYGYYGLWGQGTLVTVSS
VL: ALVMTQTPSPVSAAVGGTVTINCQASEDIYSNLAWFQQKPGQPPKLLIYDASTLASGVPSRFSGSGSGTEFTLTISGLQSDDAATYYCLGVYTYISPDGTDNAFGGGTEVVVK
notes: rabbit monoclonal antibody; also called P013.A.00141.G02

Target: T1, human IL-1RAcP on 293T/17-FR cells
Test: cell-based or functional assay

| functional reporter gene assay (% inhibition), 0.04 µg/mL mAb | functional reporter gene assay (% inhibition), 0.2 µg/mL mAb | functional reporter gene assay (% inhibition), 1 µg/mL mAb | functional reporter gene assay (% inhibition), 5 µg/mL mAb | primary supernatant functional assay (% inh.), NF-kB luciferase reporter | Binder |
| --- | --- | --- | --- | --- | --- |
| 21% | 27% | 31% | 30% | 29% | B1 |
| 1% | 22% | 58% | 79% | 85% | B2 |
| 42% | 83% | 93% | 99% | 97% | B3 |
| 54% | 63% | 60% | 68% | 73% | B4 |
| 15% | 70% | 92% | 93% | 72% | B5 |
| 27% | 67% | 87% | 89% | 95% | B6 |
| 19% | 28% | 73% | 96% | 88% | B7 |
| -6% | 14% | 56% | 86% | 79% | B8 |
| 0% | 14% | 21% | 68% | 85% | B9 |
| 9% | 22% | 54% | 79% | 85% | B10 |

Target: T2, rhIL-1RAcP/Fc Chimera
Test: ELISA, recombinant purified mAb

| EC50 | Binder |
| --- | --- |
| 0.847 µg/mL | B1 |
| 0.541 µg/mL | B2 |
| 0.042 µg/mL | B3 |
| 0.05 µg/mL | B4 |
| 0.07 µg/mL | B5 |
| 0.247 µg/mL | B6 |
| 0.256 µg/mL | B7 |
| 0.137 µg/mL | B8 |
| 0.59 µg/mL | B9 |
| 0.555 µg/mL | B10 |

Target: T2, rhIL-1RAcP/Fc Chimera
Test: ELISA, primary supernatant, coated hu-IL-1RAcP-Fc
Procedure, shortened: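 Plates coated with 0.5 μg/mL Fc-tagged human IL-1RAcP; rabbit B-cell supernatant antibodies detected by peroxidase anti-rabbit IgG Fab2 and TMB, absorbance 450/620 nm. Parallel IL12Rβ1-Fc coating served as counterscreen to exclude tag binders.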

| hu-IL1RaP ELISA (OD) | Binder |
| --- | --- |
| 3.6 OD | B1 |
| 3.3 OD | B2 |
| 3.5 OD | B3 |
| 3.4 OD | B4 |
| 3.4 OD | B5 |
| 3.9 OD | B6 |
| 3.5 OD | B7 |
| 3.7 OD | B8 |
| 3.3 OD | B9 |
| 3.4 OD | B10 |

Target: T3, mIL1RAcP-Fc
Test: ELISA, primary supernatant, coated mu-IL-1RAcP-Fc

| mu-IL1RaP ELISA (OD) | Binder |
| --- | --- |
| 0.7 OD | B1 |
| 0 OD | B2 |
| 0.5 OD | B3 |
| 0.1 OD | B4 |
| -0.1 OD | B5 |
| 0 OD | B6 |
| -0.1 OD | B7 |
| -0.1 OD | B8 |
| 0 OD | B9 |
| -0.1 OD | B10 |
